Assay results taken from a protein production outcome set (Wang et al. 2014).

Test: label from the status in PepcDB records

## MAEPVDVLVLGGGPAALCIASELNQWGVAVGCIAPDPVDASWPNTYGIWADELKMVGLEHLLEHRWSDTVSFFGAGGSTAQDQSHAHGIDYGLFDRAELQRYWLERADGVVWHQDTAERVDATSATTSVSCVSGTTLQARLVIDASGSRTPHIRRPDQGPVAGQAAYGVVGRFSQPPIEAGRFVLMDYRCDHLSAAQRQEPPTFLYAMDLGDGVFFVEETSLALAPGFSYDVLKQRLQQRLDQRGVAITEVIHEEFCLFPMNLPLPDRSQPLLAFGGAASMVHPASGYMVGSLLRRGPDLAKALAEALANRNLGSAALAQRGWQALWPIELVLRHQLYQFGLGRLMGFNEALLRTHFATFFSLPREEWFGFLTNTLPLPRLMGVMLRLFALSPWELRRGLVLGAAMDQLPTFDQSSG
  protein production: failed

## MHIPLWHSRVPSATLSRSHSVLLPLSLTAHSPKRARLVAMSTNPEIPQWFALTPRVWTTSVEPESVTCGLVAGEDHVLLIDTGSTPEQGHTLAMSAARMLGRPVDRIVVTHHHYDHSGGLPGITDAEVWMHEAALAHCPDLHVDHPVSLMAYVNLGGLGAEVIHPGPAHTDGDLIVIVRDEKITFVGDLVETAGEPQSDGTTDVRGWPRAIDSVITGTDGAGLYVPGHGQPIDATDVMNQRAQLAERIPTNIPLTDRHIPLP
  protein production: failed

## MFNDWRRVLALSGKALGAILFCEAVGLLAAWVTQTSVTTWYPTLTKPSFTPPNWVFAPAWTTLYALMGVAAFLVWRCGPDRTRVRTALTAFGLQLAANAGWSFAFFGARSPALGLVVILGLWGLLAWTMDRFFRVRPVAGWLLVPYLAWVTYALALNAAIWGLN
  protein production: failed

## MTCPEQAIEHDDMNVVVDVEKCKFCMDCIPVCPTGSIDNWRVVDTPYSLEDQYGWMDLPPQEDVAGDEAGLEALDDAMAALLAEAHKGAGGKSRAPATASKPTINLYTLGKPAEARVTGNYRLTAESSDSDVRHIILDFGGQPFPVLEGQSIGIIPPGTDEAGNPHLPRLYSVSSPRDGERPNFNNLSLTVKREPHGICSNHVCDLKPGDTVRVTGPFGATFLMPSDPAAHLLMICTGTGSAPFRAFTMRRQRESPKLRNSLTLVFGARRPQELPYFGPLAKVPEQFMAKHFAFSRQDGAPKHYVQDRLRAEADRVGELLADPLTHVYVCGLKAMEQGVEEAFKDIARAQGIDWTGLRDRMRDEGRYHVETY
  protein production: failed

## MVVTCPKCGAKNRLGTPPPGQVPVCGACKTPLPWVVEADEKGFAQEVAGAPLTLVDFFAPWCGPCRLVSPILEELARDHAGRLKVVKVNVDEHPGLAARYGVRSVPTLVLFRRGAPVATWVGASPRRVLEERLRPYLEGR
  protein production: not failed

## MLPADGIVCFPGQTWEKVLSKVKKAVVFMDDRCSESLHWNGGAALLFEAGARNIKQFSSFEAGAQNEPKAVFVVSTVLKGRTADIIKDIISLSHFQYCVVFTTVPHSIHLLANNVNADLEGNPVFEQFEEKLCEWMGDMNYTAEVMHAPVVFAPLTEHLHLLPAFSNLFPLLDVDLESINEKRPEKKRFGSLMDMDVHSLPPGLQIQIKTLALTLNGLFEFISTREESFSVGPMSRLIATELANLPQAKNRRKTAPNKASVVFVDRTLDLTGAVGHHGDNLAEKILSVLPQLPGHVTDVQVDMLELTHLKPTTDTKGILAPGCLAQNQSATAKLLWETMLVAKQKEAVIEVRRQLVEAASKENLPIKMSLGRVTAEQLCSYVQLFRDSWGALESHSGVLQLGLAAAQALRHPALQRWDACLAFERLLLQALGDSDLAGVLKQLLPLIKSSESGTGSDLSMDDLLVLLVYVYSVAKEACSGGSEEEKQVEKVEQELIGALTLRLTRETTLSPLVQEVTGVSCPEELTMECAHSVLESMFGTLRGVARARDHLKNFSSVFTPGDGAHQDQHRYILILMIQDQHQ
  protein production: failed

## MIEESVMLRQHNLRLRKYDYVLGRLFVALPIGGLVVAVLLLFADWRVGRFELAMCLAMYLFTMMGIEVGFHRCFAHRAFKAGTGLQWVLAVAGSMGGHGPLIWWVTTHRRHHRFVDTDQDPHTPNKDLRGPWRNFKSFLYGYVGWTMDTDVKLQEGWQRYGVDLYKNSILFKVHARFALIALLGLLLPTVAGALFHRTAEGALLGLLWGGLVPICLTQHLFWMINAFGHRIGAKPFSGRIVGDSRNCWWLALPTFGQGWHNNHHADPGCATTRKTWWQLDPGAWLIRLFERLGWASAVKWK
  protein production: failed

## MDFPQHSQHVLEQLNQQRQLGLLCDCTFVVDGVHFKAHKAVLAACSEYFKMLFVDQKDVVHLDISNAAGLGQVLEFMYTAKLSLSPENVDDVLAVATFLQMQDIITACHALKSLAEPATSPGGNAEALATEGGDKRAKEEKVATSTLSRLEQAGRSTPIGPSRDLKEER
  protein production: failed

## MLHYVHVGNKKSPNTLLFVHGSGCNLKIFGELEKYLEDYNCILLDLKGHGESKGQCPSTVYGYIDNVANFITNSEVTKHQKNITLIGYSMGGAIVLGVALKKLPNVRKVVSLSGGARFDKLDKDFMEKIYHNQLDNNYLLECIGGIDNPLSEKYFETLEKDPDIMINDLIACKLIDLVDNLKNIDIPVKAIVAKDELLTLVEYSEIIKKEVENSELKIFETGKHFLLVVNAKGVAEEIKNFI
  protein production: not failed

## MGSSHHHHHHSSGLVIRGSHMRIALMQHTARPLDPQHNLDLIDDAAARASEQGAQLLLTPELFGFGYVPSQICAQVSAEQVDAARSRLRGIARDRGIALVWSLPGPEGPEQRGITAELADEHGEVLASYQKVQLYGPEEKAAFVPGEQPPPVLSWGGRQLSLLVCYDVEFPEMVRAAAARGAQLVLVPTALAGDETSVPGILLPARAVENGITLAYANHCGPEGGLVFDGGSVVVGPAGQPLGELGVEPGLLVVDLPDQSQDAGSDSADYLQDRRAELHRNWL
  protein production: not failed

## MPLDRDWIAQRIPHAGAMCLLDRVLTWDAGRLRCVAVSHLSPGNPLRAGGRLSVVCGIEYAAQATAVHGALRSAGEGEAPRSGFLVSVRDVEFHVRRLDTLDGDLVVEVECLTGDGNDALYRFRLLAADGRELLTGRLAVRLDAEAGLEHHHHHH
  protein production: not failed

## MEDIEYLDEYKDLVLPGIKSSAPTASSAGVPRQRRISSDSSNSSSIDADIFQKLFHGKYLDDELLKEGSGSKSQDRRRRPPSPSSSDESNDALEALFCGK
  protein production: failed

## MMPPPAVPPQLPEVPAADLPRVRAPLSTYRRPQRTDFVTPTGGPFFAKQDKALNTIDLKMAHDLKLRGYRVKVAVVDEGVRSDHPLLNVEKKYGGDYMADGTRTYPDPKRQGRHGTSVALVLAGQDTDTYRGGVAPNADLYSANIGTRAGHVSDEAAFHAWNDLLGHGIKIFNNSFATEGPEGEQRVKEDRNEYHSAANKQNTYIGRLDRLVRDGALLIFAAGNGRPSGRAYSEVGSVGRTPRVEPHLQRGLIVVTAVDENGRLETWANRCGQAQQWCLAAPSTAYLPGLDKDNPDSIHVEQGTSLSAPLVTGAAVLVQDRFRWMDNDNLRTTLLTTAQDKGPYGVDPQYGWGVLDVGRAVQGPAQFAFGDFVARVTDTSTFGNDISGAGGLVVDGPGALVLAGSNTYAGRTTIKRGTLDVFGSVTSAVTVEPGGTLTGIGTVGTVTNQGTVVNKEAGLHVKGDYSQTAQGLLVTDIGSLLDVSGRASLAGRLHVDDIRPGYVGGDGKSVPVIKAGAVSGVFATLTRSPGLLLNARLDYRPQAVYLTMRRAERVHAAAQRGADDGRRASVLAVAERLDAAMRELDALPESQRDAAAPAAAIGRIQRVQSRKVLQDNLYSLAGATYANAAAVNTLEQNRWMDRLENHLAQAGGERVAAIAEYRHGQLRWRPDGLQGRQRGNGIMLGLAREVSAGLSLAAALTHSRTHWDESSGAPARDNAAMTTPGVLLGARRAWEDGWFVQGALGYSRYRNQATRHISLGDAGHTVGATARGHVWQADAGLGRQWTLAPGHTLAPRAGLQLTHLRQQGFSESGAQGLGLRAHALTRTVPTLWAQLQSRHAFMLGATPMTAQLQLGVWHDLRARRYAASGGFAGLAQDQGASGYWPVPRTRVQGALGLRAEFAPGLVLGLGYTGQLATHWVDHQLSASLTYRY
  protein production: failed

## MIELEVVIRTVASFGLLLIAERILGKQTISQMTIFDFIAAITLGAIAAGLAYNTSIKPHNMAISFSIFVLTIFLISFLSIKNRKLRKFFAGDPTVLIQNGKILESNMRKMRYTLDYLNQQLREKEIFNIEEVLFAILETNGQLTVLRKPQFRHVTKQDLMIAVNQEQRLPIELIMDGEIIENNLKQNRLTESWLLEELRKRDIKVKETVYAVLLGNGDIYVDQYKDHISVPMDKE
  protein production: failed
